{"source": "patent US10588972B2", "about": "“Phthalocyanine probes and uses thereof” (LI-COR, INC., priority 2014, dated 2020)", "molecules": {"B1": {"name": "700DX-EGF (conjugate, UniProt P01133 23-1207, looked up)", "Pro-epidermal growth factor": "PQHWSCPEGTLAGNGNSTCVGPAPFLIFSHGNSIFRIDTEGTNYEQLVVDAGVSVIMDFHYNEKRIYWVDLERQLLQRVFLNGSRQERVCNIEKNVSGMAINWINEEVIWSNQQEGIITVTDMKGNNSHILLSALKYPANVAVDPVERFIFWSSEVAGSLYRADLDGVGVKALLETSEKITAVSLDVLDKRLFWIQYNREGSNSLICSCDYDGGSVHISKHPTQHNLFAMSLFGDRIFYSTWKMKTIWIANKHTGKDMVRINLHSSFVPLGELKVVHPLAQPKAEDDTWEPEQKLCKLRKGNCSSTVCGQDLQSHLCMCAEGYALSRDRKYCEDVNECAFWNHGCTLGCKNTPGSYYCTCPVGFVLLPDGKRCHQLVSCPRNVSECSHDCVLTSEGPLCFCPEGSVLERDGKTCSGCSSPDNGGCSQLCVPLSPVSWECDCFPGYDLQLDEKSCAASGPQPFLLFANSQDIRHMHFDGTDYGTLLSQQMGMVYALDHDPVENKIYFAHTALKWIERANMDGSQRERLIEEGVDVPEGLAVDWIGRRFYWTDRGKSLIGRSDLNGKRSKIITKENISQPRGIAVHPMAKRLFWTDTGINPRIESSSLQGLGRLVIASSDLIWPSGITIDFLTDKLYWCDAKQSVIEMANLDGSKRRRLTQNDVGHPFAVAVFEDYVWFSDWAMPSVMRVNKRTGKDRVRLQGSMLKPSSLVVVHPLAKPGADPCLYQNGGCEHICKKRLGTAWCSCREGFMKASDGKTCLALDGHQLLAGGEVDLKNQVTPLDILSKTRVSEDNITESQHMLVAEIMVSDQDDCAPVGCSMYARCISEGEDATCQCLKGFAGDGKLCSDIDECEMGVPVCPPASSKCINTEGGYVCRCSEGYQGDGIHCLDIDECQLGEHSCGENASCTNTEGGYTCMCAGRLSEPGLICPDSTPPPHLREDDHHYSVRNSDSECPLSHDGYCLHDGVCMYIEALDKYACNCVVGYIGERCQYRDLKWWELRHAGHGQQQKVIVVAVCVVVLVMLLLLSLWGAHYYRTQKLLSKNPKNPYEESSRDVRSRRPADTEDGMSSCPQPWFVVIKEHQDLKNGGQPVAGEDGQAADGSMQPTSWRQEPQLCGMGTEQGCWIPVSSDKGSCPQVMERSFHMPSYGTQTLEGGVEKPHSLLSANPLWQQRALDPPHQMELTQ", "modifications": "Pro-epidermal growth factor IRDye 700DX conjugate"}}, "type_in_all_cases": "cell-based", "key": {"[1]": {"test_system": "A431 cells", "assay": "Caspase 3/7 assay, doses of IRDye 700DX-labeled EGF (Table 4)", "experimental": "A431 cells were treated with IRDye® 700DX-labeled EGF at a concentration of about 0.1-1 μM for about 8 minutes and irradiated at about 32 J/cm^2.\nBriefly, 150,000 cells were plated and incubated overnight at 37° C., 5% CO2. About 1 ml of the probe was added to the appropriate treatments. The cells were rinsed after the incubation period and imaged. The cells were irradiated with a small LED apparatus. The cells were further incubated at 37° C., 5% CO2, and then imaged at 2-3 hours post irradiation. The cells were then harvested and resuspended in 250 μl PBS. The cells were counted in NC-100™ NucleoCounter® (ChemoMetec A/S; Allerod, Denmark). The cells were analyzed according to manufacturer's protocol to perform the caspase3/7 assay (ImmunoChemistry Technologies, LCC, Bloomington, Minn.). NC indicates negative control, e.g., no probe."}, "[2]": {"test_system": "A431 cells", "assay": "VB-48 assay: vitality, viability and necrosis of treatments 1-10 (Table 3)", "settings": "irradiated (I) 32 J/cm^2; RGD 0.5 μM, EGF 0.5 μM, NHSe 5 μM, Pan ~0.1 μM", "experimental": "Briefly, A431 cells were labeled with respective probes for specific treatments (listed below); cells were rinsed and evaluated for labeling. The test include the following treatments: […], treatments 3-4 of EGF-IRDye® 700DX at 0.5 μM and radiation, treatments 5-6 of IRDye® 700DX NHSe at 5 μM and radiation, treatments 7-8 of panitumumab-IRDye® 700DX at about 0.1 μM and radiation, treatment 9 of a negative control with no probe and no irradiation, and treatment 10 of RGD-IRDye® 700DX and no irradiation. The probes were incubated for about 10 minutes and with a longer period of about 20 minutes for the RGD probe. The cells were monitored with microscopy and morphology was examination 24 hours post treatment.\nLow binding was expected for the RGD probe due to the low level of integrin receptors on A431 cells. […] By 3 hours post-irradiation all treatments except RGD (Treatment 1) show significant cytotoxicity. Vitality, viability and necrosis assays such as a VB-48 assay and JC-1 assay were performed."}, "[3]": {"test_system": "A431 cells", "experimental": "A different LED source was tested and evaluated to determine if a second source of LED would yield a similar effect as the standard LED used. A straight forward evaluation was set up with four treatments (treatments A-D). The tests were performed in triplicate in order to examine reproducibility. The test included the following four treatments: treatment A of no probe and irradiation, treatment B of IRdye® 700DX-labeled EGF and no irradiation, treatment C of IRDye® 700DX-labeled EGF and irradiation, and treatment D of IRDye® 700DX-labeled panitumumab and irradiation. The probe dose was about 0.1 μM labeled panitumumab and 0.5 μM 700DX-labeled EGF. Irradiation was for 10 minutes at an irradiation dose of 32 J/cm^2.\nSignificant and similar effects for both probes together and in triplicate thus providing clear evidence that IRDye® 700DX-labeled small protein can kill cells similarly to an IRDye 700DX-labeled antibody. Conditions for use of either probe may be unique to the individual probe. […] The fluorescent scale of the 700 nm images was the same for both treated sets of cells (FIGS. 12C-12D). Although the exact concentration of the antibody probe is not known, the signals from the different probes appear similar in level and intensity."}, "[4]": {"test_system": "HTB-186 cells", "assay": "Viability, cell number and microscopy morphology at 20 h post irradiation (Example 10)", "experimental": "This example illustrates the ability of IRDye® 700DX small molecule conjugates to induce apoptosis in cells, e.g., cancer cells. In this study HTB-186 cells (a desmoplastic cerebellar medulloblastoma cell line) were treated with IRDye® 700DX small molecule conjugates (IRDye® 700DX labeled chlorotoxin, anti-EGFR Affibody®, RGD peptide and EGF ligand). Apoptosis was measured by evaluating caspase 3/7 activity and mitochondrial membrane potential. Apoptosis can be characterized by a variety of cell morphological and biochemical changes including membrane blebbing, cell shrinkage, alteration of membrane asymmetry and permeability, and/or condensation of chromatin and nucleus (Coleman et al., Nat Cell Biol, 2001, 3(4):339-45, Bortner and Cidlowski, Biochem Pharmacol, 1998, 56(12):1549-59; van Engeland et al., Experimental Cell Research, 1997, 235:421-430).\nMicroscopy images of cells in petri-dishes were captured at 20 h post irradiation. The images were captured in DIC and 700 nm to visualize the probe, and composite images were generated (DIC+700 nm) to visualize the overlay.\nTo determine whether the treated cells are undergoing apoptosis, a caspase 3/7 assay and mitochondrial potential assay were performed. All cells from each treatment were recovered and processed accordingly. Table 8 below provides cells number, % viability, JC-1% shift, and % late apoptotic and dead cells as determined by caspase 3/7 assay."}, "[5]": {"test_system": "A431 cells", "assay": "Cytotoxicity and localization of antibody probe versus small protein ligand probe after irradiation (Example 4)", "experimental": "Both probes can bind EGFR and had approximately 2 dye molecule per conjugate molecule. It was assumed that the affinity for the receptor will be different for the antibody (generally pM), compared to the small protein (nM). Although the probe doses were different, the incubation times were the same at only 10 min. After incubation, the probes were rinsed from the cells. FIGS. 7A and 7B illustrates A431 cells that were incubated with IRDye 700DX-panitumumab or IRDye 700DX-EGF, respectively and thereafter irradiated.\nThus, upon irradiation, the production of singlet oxygen occurred at the cell surface. Typically, the EGF ligand is internalized after binding the EGF receptor."}, "[6]": {"settings": "1 μM, Irradiation about 32 J/cm^2"}, "[7]": {"settings": "no irradiation (NI), 700DX-EGF 0.5 μM"}, "[8]": {"settings": "32 J/cm^2, probe about 5 hours, 20 hours post irradiation, 700DX-RGD and 700DX-EGF 500 nM"}}, "note": "“And” between values parts separate entries of the source, which are not always exact repeats. Identical values can stand only once. Like-named read-outs stand apart in the source and are kept apart here.", "data": [{"molecule": "B1", "values": [{"measurement": "Early % Apoptotic", "setting": "[1]; [6]", "value": 9, "unit": "%"}, {"measurement": "Late % Apoptotic", "setting": "[1]; [6]", "value": 24, "unit": "%"}, {"measurement": "% Healthy", "setting": "[1]; 1 μM, No Irradiation", "value": 87, "unit": "%"}, {"measurement": "% Necrotic", "setting": "[1]; 1 μM, No Irradiation", "value": 3, "unit": "%"}, {"measurement": "Cells/mL", "setting": "[1]; 1 μM, No Irradiation", "value": "5.4 × 10^5 Cells/mL"}, {"measurement": "Early % Apoptotic", "setting": "[1]; 1 μM, No Irradiation", "value": 6, "unit": "%"}, {"measurement": "Late % Apoptotic", "setting": "[1]; 1 μM, No Irradiation", "value": 4, "unit": "%"}, {"measurement": "mode of cell death", "setting": "[1]; irradiating light at about 32 J/cm^2", "value": "undergo apoptosis"}, {"measurement": "% Healthy", "setting": "[2]", "value": 60, "unit": "%"}, {"measurement": "% Necrotic", "setting": "[2]", "value": 20, "unit": "%"}, {"measurement": "Cells/mL", "setting": "[2]", "value": "3.4 × 10^5 Cells/mL"}, {"measurement": "Est % Viability", "setting": "[2]", "value": "60-70%"}, {"measurement": "Low % Vitality", "setting": "[2]", "value": 19, "unit": "%"}, {"measurement": "effect on cells (morphology)", "setting": "[3]; irradiated 10 minutes, 32 J/cm^2", "value": "severely affected by the irradiating energy and were dying"}, {"measurement": "Cells/mL", "setting": "[3]; irradiated (I) 10 minutes, 32 J/cm^2, 700DX-EGF 0.5 μM, 700DX-Pan about 0.1 μM", "value": "2.8 × 10^5 Cells/mL and 4.1 × 10^5 Cells/mL and 3.8 × 10^5 Cells/mL"}, {"measurement": "% Vitality", "setting": "[3]; [7]", "value": "97.9% and 98.3% and 96.0%"}, {"measurement": "Cells/mL", "setting": "[3]; [7]", "value": "6.6 × 10^5 Cells/mL and 8.0 × 10^5 Cells/mL and 7.7 × 10^5 Cells/mL"}, {"measurement": "VB-48 % necrotic", "setting": "[3]; [7]", "value": "11% and 12% and 10%"}, {"measurement": "cell morphology", "setting": "[4]; 32 J/cm^2, 20 h post irradiation", "value": "appeared rounded and smaller"}, {"measurement": "% Viability", "setting": "[4]; [8]", "value": 75.7, "unit": "%"}, {"measurement": "Cell #", "setting": "[4]; [8]", "value": "0.7E6"}, {"measurement": "dead irradiated cells", "setting": "[5]; 10 min incubation, panitumumab probe about 0.1 μM, EGF probe 0.5 μM, 24 hours post irradiation", "value": 36, "unit": "%"}, {"measurement": "necrotic cells after irradiation", "setting": "[5]; irradiation 24 J/cm^2 (figure legend)", "value": 36, "unit": "%"}]}]}
